Test results from the supplement of paper PMC12042874.
± gives the uncertainty stated by the source.

Experiment: amyloid nucleation score (Sup35N fusion, yeast selection) (log enrichment); library NNK1; higher = more nucleation; inactive = no reads after selection
How it was run: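 The nucleation score is a DiMSum log enrichment of output over input reads, centred on the mode score of non-aggregating sequences. Sequences under 100 input reads were excluded, and reads came from Illumina sequencing of plasmid inserts. Psi-negative yeast expressing Sup35N fused to peptides of 20 random codons were induced with 100 μM copper sulfate for 24 hours and grown 7 days at 30°C on medium lacking adenine and uracil. Random libraries had three technical output replicates.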

Substance | amyloid nucleation score
WVNGMYQGRNEYDEKI | -0.455 ± 0.56
RASRMHGQGPLKNVWEGLYQ | 0.119 ± 0.98
VLIDMSGSCSKAMHAIRQDR | 0.218 ± 0.73
HLMDSSYGSGSGCSTKTSCV | 0.061 ± 0.28
ILHDNFKSSELFAWSAYCRY | inactive
WINYRRDPTAHSNSYFRVGI | 0.059 ± 0.58
STLSMTHVASAAVWRLVMPR | 1.41 ± 0.48
HLFRYSGTTSAV | 0.386 ± 0.53
PLRSRSGVSL | 1.09 ± 0.62
DFNYPDSSCLGFKCLNAHWV | -0.731 ± 0.33
LEAKSAGRVACQHGVALRVG | 0.674 ± 0.47
IIFNEIIHMQFDNIGDV | 3.27 ± 0.17
SLDVILVPMCTFCRGMAYCS | 0.457 ± 1.1
LRVYHSYFFSWSSTSLLPAG | 0.219 ± 0.76
ICICLMLSVIGSSSHVLLDW | 1.08 ± 0.72
QYCAKSVSFRWCHLSRWLMP | 0.401 ± 0.71
VGDCSSVFCVTSFDWVSFYV | 2.89 ± 0.098
GSNFTKVCILPSLHRTLLVG | -0.222 ± 1.4
FLAWRTLDEMVLCKRCDNAI | 0.291 ± 1
TQVSVFQ | -1.3 ± 0.83
FDNVVGYNGFMDGPGYLLYT | -0.16 ± 0.25
TLKAVHTLTTD | 2.4 ± 0.23
TFLWC | 0.462 ± 0.4
LLYYASVLRMKGTECPDGGD | -0.856 ± 2.4
IFHGWVTGCCLVDNLLFYCT | 5.42 ± 0.1

Substance | amyloid nucleation score
RAYTCRCEFAQGFVYNLIFS | 5.4 ± 0.079
TNLMSFY | -0.721 ± 1.1
VRMGQDRHIISTKLTVSREL | -1.22 ± 2.7
FYDLFNVNIGLGDFKSVCFL | 2.66 ± 0.2
ATYAYRFRLVSTIICLD | -0.222 ± 1.4
CPIWPVCWEVNHVPYLTKDI | 0.58 ± 0.79
LYWFAAWLATYIYAW | 0.109 ± 0.48
TSRYVFRT | 0.925 ± 0.58
TRCASC | 0.3 ± 0.65
NYLHFSRRLALWRC | inactive
SATPGRGY | 0.851 ± 0.24
LCGSVRFRTGLECKQPSSCI | -1.02 ± 2.7
YWIDR | -0.281 ± 0.42
FSTFVGHYLSKMKWITVVNS | 0.531 ± 0.36
LWLNLILCFQWDPQRKC | 4.09 ± 0.11
YAIRHLKIGSGWWSLWMSSM | -0.522 ± 0.34
TYYTVTEISHVGWTYFGYVR | -0.151 ± 0.64
TTLVKPDEIVFVSINECWCW | 0.021 ± 0.59
EFTRRAYYDRNAQLFHMDQC | 2.19 ± 0.18
LYEDLWFRVREL | 1.11 ± 0.63
NLVVTTWARDIADYISAS | -0.01 ± 0.4
STSIDVWRSALLRVFGFTIY | 0.171 ± 0.37
TPLNTLYRLPMGNWLG | 0.06 ± 0.26
GSSMLHSFSFGGPALVCCVF | 7.167 ± 0.055
TRIMVDFLLDWHCRMVKLVN | 0.33 ± 0.44

Substance | amyloid nucleation score
CIISNVCTRVGGKMGSYGYS | 0.133 ± 0.4
AHSALVTRTYSINIYFVSVE | 1.51 ± 0.21
IADGTLTVSL | 0.609 ± 0.32
YTSSFVKDGKHWSRSKTGVY | -0.569 ± 0.73
GFMERLASIYTFFWGVDSK | -0.339 ± 1.2
IAAVFHCKNSLMY | 2 ± 0.2
RKDLEIWYRMRLGEMPLRWM | -0.165 ± 0.33
LRYSIISLAANSKTADG | 0.663 ± 0.7
WIMKGY | -0.123 ± 1.1
CACVIRIFNLMVMWDILYWS | 0.748 ± 1.2
VDHTSMWCGFLYTSCLGPDF | -0.758 ± 1.2
LFKNFEWMYSTMTHLSWIWL | -0.335 ± 0.21
FFNRNLMCVVLIVRT | -0.388 ± 0.47
YRVLELFYFV | inactive
NWLNWLTHLFS | 0.407 ± 0.49
GGPDTMEMGSFGDARATDAG | 1.03 ± 0.93
FIVGTFLHENASLRFRIHKA | -0.011 ± 0.35
NSDSIGIRVFDV | 0.242 ± 0.99
GVHYYHLASWTWISFLITRR | 0.424 ± 0.85
QERTMVLMLHMYYSGCAILM | 0.761 ± 0.56
SFSWLSRMTR | 2 ± 0.1
LSAVPSNGHNNGGYVKSDVS | -0.766 ± 1.4
LFLFRSH | 5.445 ± 0.048
NFMEYYKIRVMCWANR | 0.616 ± 0.29
YFAAVIRRFGWTDIERSHQC | 0.233 ± 0.79

Substance | amyloid nucleation score
MKFDYFRRC | -0.471 ± 0.5
LCNKVWFAECQIHSRQG | -0.144 ± 0.83
LMPLLS | 0.025 ± 0.36
GYEDRRSRCSIWVVRFLNVL | -0.605 ± 0.8
CLTSRQMMQKLMRYIKNDLG | -0.051 ± 0.32
VDVSNLKCLQE | 0.335 ± 0.42
CNVKCLRVARFDFVYRFFLP | inactive
LFDWWCFEKYLICRVGSLTF | -0.091 ± 0.51
IYMYIVNRRVTGSFRF | -0.136 ± 0.23
RRHLGRCTRSKLFNPLR | 0.101 ± 0.54
CGQLACVEPNWLSIKVMFRN | inactive
PYLGHR | -1.55 ± 1.4
EWTSCMPLAFMLPLVILSFA | 0.532 ± 0.7
SIVKRNLNAFAGLSLYMIFG | -0.764 ± 0.54
TENCDLCKQLAAVLC | -0.812 ± 0.93
MYRDDAGFEGMF | 1.19 ± 0.61
SLPNILLSQPMFRRISSMLQ | 1.17 ± 0.62
ESYSYQGCFATYLQQNTWCT | -0.008 ± 0.28
NLKIQCSS | 0.004 ± 0.39
YILPFFGRHYNRHGVFAGAM | -0.647 ± 0.9
RYARWYTQCWTKQRVWRPLD | 0.984 ± 0.3
DGVVCMNAVCFQTMYVMYWL | 6.69 ± 0.08
KVSPIMDEN | 0.547 ± 0.37
VASRFVCWCRGQAQWVSQCN | 0.434 ± 0.45
KYKDFLGSISDLDWII | -0.464 ± 1.4

Substance | amyloid nucleation score
VYRLEVIARK | 1.69 ± 0.33
YRVFASNCEFYSRCKYLYLL | 0.029 ± 1.6
KRYDLRLKMMTTPI | 1.29 ± 0.41
RNWYKW | inactive
NALYSWAPLDCIMPRIVS | 0.299 ± 0.47
CSKVVSSVLVQL | -0.322 ± 0.45
LRAPGTMVDRRCRGVWK | 0.356 ± 0.85
LQCSCLTVWLQNRPDQLSPS | 0.1 ± 0.73
VRIAPHKGPDRTSGVLLGRM | 0.838 ± 0.75
ISLDFDNYRVILLKRLVGVM | -0.594 ± 0.33
LDIVCLPKFVVWTDTV | -0.301 ± 0.56
RILGYRIMTNWGVGSYKPGR | -0.41 ± 0.46
RDGAVFYFMEVRVSYRFLTN | -0.392 ± 0.7
VSRLRSDWNL | 1.43 ± 0.3
TCGSYV | 0.215 ± 0.42
LMLGKLWFPGMCYESKWELG | -0.181 ± 1
SIFSSWMSWGLII | 0.194 ± 0.39
FSLDSRITANLTKWEEMLVQ | -0.779 ± 0.41
SFEDLEM | 0.457 ± 0.85
AIYIVVEI | -0.764 ± 1.2
ACSGISILTCIIYRRQYISS | -1 ± 0.91
NYVYPRVLYSFQVLLYPSKD | 0.704 ± 0.49
TTSFRHSVYQDYGLSVIDCG | -0.351 ± 0.78
ALLMGDFGCFLYTFGWFYAK | -0.173 ± 0.41
NSSTVDFSYTNYVRVLLLIA | -0.745 ± 0.8

Substance | amyloid nucleation score
SNRFVPSNSSKVGSNVIDAK | 0.386 ± 0.36
SFLLNPTADMNHCFGDVFGG | -1.44 ± 1.4
DLCPSGGVSDLCNPYGCFTL | -0.427 ± 0.71
IPLAGLFYSFWISLHTRSNT | -0.308 ± 0.52
LMWVNLTSVFVRMD | 0.14 ± 0.31
TVNCFDYSVSGVSSNRV | 0.882 ± 0.66
YIWQGTRFQRGNRIYIGSQG | 0.271 ± 0.54
YIPFGLIYHGKLG | -0.969 ± 2.1
LCLGHRH | -0.818 ± 1.6
FSIRTFVIRFTLMEHLSLEL | 0.266 ± 0.52
MSRFLTLMHFERNFV | 0.566 ± 0.42
QSNPSPISNMLNPDCLYKNG | -0.013 ± 0.2
YNCYREGAWSITIRWIANRV | 0.124 ± 0.34
NLGTSYAWHDNGLFCIHCVS | 1.34 ± 0.84
WKYIMHLSRFYVFPCSTERG | 0.112 ± 0.87
RLFTYYTVRNPYVADKFYNR | 5.174 ± 0.051
RLCEFSSKGASL | -0.115 ± 1.1
HDLVKVFSFCVWP | 3.02 ± 0.19
KPMFSLGSNYKMCIYHGCFM | 8.183 ± 0.061
MVMFHSSFLIDDTWICWNPF | 0.255 ± 0.47
YILWNHNGLNGWGFAGITLF | -0.994 ± 0.51
LVCVFAWLFP | 7.41 ± 0.075
TRMRLPP | -0.299 ± 0.48
TTQDCNLRD | -0.021 ± 0.34
TRYPLNISEVFRFDFPNRIP | -1.32 ± 2.4

Substance | amyloid nucleation score
SGNTSPCCVSKFDLPHSTGK | 0.245 ± 0.3
VTRFRYECRSGHRKHPGGMD | inactive
YMFVMEKARTSIYLSMRNYC | -0.419 ± 0.39
IGVCILTDRLHD | inactive
PGRSTHDIRSGPAEYTDSVC | 0.487 ± 0.63
CCGLSDLYDVAVERVGGLLN | -1.26 ± 1.1
RNIRIR | -0.534 ± 0.25
ERNRHKVIMFMTSPWEMVIL | -1.06 ± 2.4
RRKLACCCRFSVLSSGCVQN | -0.668 ± 1.7
VHSCIYVSKTSLELARYQML | inactive
FHLPALTSSLPA | 0.102 ± 0.35
RNMKPIYFLRPTISVNRSNR | 0.594 ± 0.85
WGPRSVNGTLRI | -0.488 ± 0.32
NLFLIDMNVWRLVVGGRQDW | 4.63 ± 0.073
AYYVRGRNLLFVTIGYGYLC | -1 ± 1
CHCCEVSWCSVWKVCIYCNI | 5 ± 0.088
RYRPSVCRS | 0.872 ± 0.54
LVSMYA | -0.859 ± 0.73
NDSACIRRSIGSHSFSSCSV | 0.766 ± 0.84
CLYVTPYMLFYLLVSNGTEC | -1 ± 0.35
MQFNVSWRNGWSRWIGVSDV | 6.519 ± 0.054
DIVHGGYRLWTCKFGDVRYC | -0.162 ± 0.32
